Source: patent US20120156198A1 (Hoffmann-La Roche, published 2012)

Experiments:
[1] = biological target: T1, cynomolgus IL-18Rα on CHO-K1 cells (cynomolgus, UniProt A0A2K5V3J9 19-540); assay: cell ELISA on CHO-K1 cells expressing cynomolgus IL-18Rα
T1 construct: whole, on cells; also called CHO CyIL-18Rα
T1 sequence: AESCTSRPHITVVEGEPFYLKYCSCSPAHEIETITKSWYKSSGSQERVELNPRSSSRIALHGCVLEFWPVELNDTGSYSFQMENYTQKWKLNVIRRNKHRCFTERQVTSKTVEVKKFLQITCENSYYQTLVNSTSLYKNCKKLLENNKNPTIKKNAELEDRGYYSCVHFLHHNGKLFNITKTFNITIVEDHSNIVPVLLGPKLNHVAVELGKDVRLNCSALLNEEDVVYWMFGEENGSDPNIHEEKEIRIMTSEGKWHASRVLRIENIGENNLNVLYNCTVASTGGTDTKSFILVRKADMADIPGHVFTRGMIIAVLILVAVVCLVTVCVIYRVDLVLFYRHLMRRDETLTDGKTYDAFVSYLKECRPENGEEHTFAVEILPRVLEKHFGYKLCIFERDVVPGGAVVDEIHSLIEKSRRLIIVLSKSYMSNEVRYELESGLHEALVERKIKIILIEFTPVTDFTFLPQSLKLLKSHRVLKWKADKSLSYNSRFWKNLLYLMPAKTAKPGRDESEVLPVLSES
Protocol: (§1) The recombinant cell lines CHO-K1 expressing cynomolgus IL-18Rα or cynomolgus IL-18Rα+β were stained with the Mab_IL-18R antibodies in a cell ELISA. Controls are CHO-K1 untransfected cells. Cells were grown in F-12 medium (GIBCO) with Glutamax-1 (GIBCO Cat. No. 31331-028)+10% FCS (PAN Cat. No. 2802-P920707). For cultivation of the recominant cell lines 250 μg/ml G418 (Geneticin, GIBCO, Cat. No. 10131-019) was added. As control antibody anti hIL-18Ralpha Antibody Mab840 (Mouse monoclonal IgG1 from R&D Systems, Cat. MAB 840) and as detection antibody goat anti-mouse IgG (H+L)-HRP conjugate (BioRad) was added. For running the assay, on day 1 2×10⁴ CHO_CynoIL-18Rα, CHO_CynoIL-18Rα+β or untransfected CHO cells in 50 μl F-12/well were seeded in a 96-well plate and incubated overnight at 37° C. On day 2, 50 μl supernatant or (2×) purified antibody diluted in medium or 50 μl Hybridoma supernatant were added and incubated for 2 h at 4° C. Supernatant was aspirated and 100 μl/well Glutaraldehyde fixing solution (25% stock solution Grade EM; final concentration=0.05% in PBS) was added and incubated for 10 minutes at room temperature. For washing 2 times 200 μl PBS/well/wash was added and removed. 50 μl of ELISA detection-antibody diluted in ELISA blocking reagent (ELISA blocking stock reagent diluted 1:10 in PBS) was added. […] The plates were measured at 450 nm-620 nm using an ELISA reader (TECAN).

[2] = biological target: T2, cynomolgus IL-18Rα/IL-18Rβ on transfected cells (cynomolgus, UniProt A0A2K5V3J9 19-540; A0A7N9D6S0 20-598); assay: cell ELISA on CHO-K1 cells expressing cynomolgus IL-18Rα+β
T2 construct: whole, on cells; also called CHO CyIL-18Rα + β
T2 sequence 1: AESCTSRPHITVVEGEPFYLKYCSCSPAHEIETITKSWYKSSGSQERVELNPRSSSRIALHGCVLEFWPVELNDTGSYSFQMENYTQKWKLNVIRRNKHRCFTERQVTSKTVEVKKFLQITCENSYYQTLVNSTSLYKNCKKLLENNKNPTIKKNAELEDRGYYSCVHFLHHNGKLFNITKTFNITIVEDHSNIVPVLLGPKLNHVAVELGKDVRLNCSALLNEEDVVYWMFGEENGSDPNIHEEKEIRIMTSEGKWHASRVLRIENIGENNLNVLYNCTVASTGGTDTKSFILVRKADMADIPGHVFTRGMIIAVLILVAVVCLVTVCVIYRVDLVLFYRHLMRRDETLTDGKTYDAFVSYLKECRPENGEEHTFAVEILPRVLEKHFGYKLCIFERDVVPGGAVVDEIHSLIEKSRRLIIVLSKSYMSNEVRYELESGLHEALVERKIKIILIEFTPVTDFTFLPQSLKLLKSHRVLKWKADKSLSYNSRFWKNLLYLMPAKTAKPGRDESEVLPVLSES
T2 sequence 2: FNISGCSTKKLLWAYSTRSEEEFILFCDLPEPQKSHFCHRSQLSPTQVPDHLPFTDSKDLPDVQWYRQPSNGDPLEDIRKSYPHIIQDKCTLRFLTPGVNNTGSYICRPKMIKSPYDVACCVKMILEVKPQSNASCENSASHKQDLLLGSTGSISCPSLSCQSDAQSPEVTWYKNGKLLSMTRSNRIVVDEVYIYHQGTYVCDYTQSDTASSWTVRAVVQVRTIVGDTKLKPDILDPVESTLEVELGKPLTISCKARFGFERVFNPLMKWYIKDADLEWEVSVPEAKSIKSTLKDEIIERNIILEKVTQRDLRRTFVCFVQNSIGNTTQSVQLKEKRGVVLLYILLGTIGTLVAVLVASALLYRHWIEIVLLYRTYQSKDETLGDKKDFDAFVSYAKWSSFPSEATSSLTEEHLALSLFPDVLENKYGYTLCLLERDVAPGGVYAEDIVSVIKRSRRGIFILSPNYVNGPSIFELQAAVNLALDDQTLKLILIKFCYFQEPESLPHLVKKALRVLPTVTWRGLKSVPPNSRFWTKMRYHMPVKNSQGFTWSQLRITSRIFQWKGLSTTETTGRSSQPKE
Protocol: as §1

B1: Mab 1G12 (antibody, V domains shown)
VH: QVQLQQPGAELVKPGASVRMSCKTSDYTFTSNWMHWVKQRPGQGLEWIGTIDPSDSYTYYNQKFKGRATLTVDTSSSTAYMQLSSLTSEDSAVYYCTTSGDYDADRYFDVWGAGTTVTVSS
VL: DIVLTQSPASLGVSLGQRATISCRASKSVSTSGDSYMHWYQQKPGQSPKLLIYLASNLESGVPARFSGSGSGTDFTLNIHPVEEEDAATYYCQQSRELPLSFGAGTKLELK
notes: Monoclonal antibody from immunized NMRI mice; detected with anti-mouse IgG1-PE / anti-mouse IgG; also called F20.1G12; monoclonal antibody 1G12
EC50 [1]: 0.0186 µg/mL | EC50 [2]: 0.015 µg/mL
